Source: patent US9127040B2, “Regulation of sodium channels by PLUNC proteins” (The University of North Carolina at Chapel Hill, priority 2011, dated 2015)

Target: T1, αENaC (Homo sapiens, UniProt P37088)
T1 sequence (P37088 1-669): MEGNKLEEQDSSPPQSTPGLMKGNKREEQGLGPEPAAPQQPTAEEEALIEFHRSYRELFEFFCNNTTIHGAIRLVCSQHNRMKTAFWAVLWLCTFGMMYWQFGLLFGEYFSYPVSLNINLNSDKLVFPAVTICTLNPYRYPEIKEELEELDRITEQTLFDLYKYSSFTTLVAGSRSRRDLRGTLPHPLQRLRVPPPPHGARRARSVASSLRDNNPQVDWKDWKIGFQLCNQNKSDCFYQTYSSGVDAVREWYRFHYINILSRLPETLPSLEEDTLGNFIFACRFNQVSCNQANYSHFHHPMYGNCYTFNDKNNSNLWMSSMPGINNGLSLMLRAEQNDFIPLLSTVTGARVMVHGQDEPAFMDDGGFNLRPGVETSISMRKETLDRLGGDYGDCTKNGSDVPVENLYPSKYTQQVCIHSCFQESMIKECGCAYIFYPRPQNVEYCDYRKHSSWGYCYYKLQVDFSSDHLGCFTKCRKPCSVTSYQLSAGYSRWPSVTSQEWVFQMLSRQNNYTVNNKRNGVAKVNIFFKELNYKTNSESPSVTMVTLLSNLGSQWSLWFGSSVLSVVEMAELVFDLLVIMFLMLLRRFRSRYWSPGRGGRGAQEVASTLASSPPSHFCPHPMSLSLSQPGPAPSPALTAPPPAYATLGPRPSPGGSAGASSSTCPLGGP
Assay: Texas red-SPLUNC1 binding assay on JME cells expressing yfp-αENaC
Set-up: expressed in transfected cells; host or cells: JME nasal epithelial cells that no longer express ENaC, lentivirus pQCXIN
Settings: Texas red-rSPLUNC1, 30 min, polarized JME cells with yfp-αENaC; Hill fit
Procedure: JME cells were incubated with varying concentrations of Texas red-labeled SPLUNC1 for 30 min followed by a 5× wash with PBS. After this time images were acquired with a Nikon Ti-S inverted microscope and were quantified to obtain specific and non-specific binding using Image J. Data were then fitted with a Hill Plot to obtain the Kd.
JME nasal epithelial cells express functional ENaCs (Tong et al., Am. J. Physiol. Lung Cell. Mol. Physiol. 287:L928 (2004)). However, this attribute is lost after several passages. Thus, passaged JME cells that no longer expressed ENaC were stably infected with a lentivirus containing yfp-αENaC or an empty vector as a control and the presence or absence of αENaC was confirmed using an antibody that was constructed “in-house” that was directed against αENaC (FIG. 8).
Recombinant SPLUNC1 was labeled with Texas red according to the manufacturer's instructions (Pierce) and was freshly labeled on the day of each binding experiment. […] After this time yfp (514 nm excitation) and Texas red fluorescence (590 nm excitation) were imaged under a 60× water objective on a Nikon Ti-S inverted microscope equipped with an Orca CCD camera (Hamamatsu) switchable filter wheels (Ludl). Background fluorescence was subtracted from all images and the mean thresholded intensity was quantified to obtain specific and non-specific binding using Image J.

B1: SPLUNC1: human SPLUNC1 (SEQ ID NO:1), 256 amino acid secreted PLUNC family protein; rSPLUNC1 is the purified V5/6His-tagged recombinant form (protein, listed as Homo sapiens)
chain: MFQTGGLIVFYGLLAQTMAQFGGLPVPLDQTLPLNVNPALPLSPTGLAGSLTNALSNGLLSGGLLGILENLPLLDILKPGGGTSGGLLGGLLGKVTSVIPGLNNIIDIKVTDPQLLELGLVQSPDGHRLYVTIPLGIKLQVNTPLVGASLLRLAVKLDITAEILAVRDKQERIHLVLGDCTHSPGSLQISLLDGLGPLPIQGLLDSLTGILNKVLPELVQGNVCPLVNEVLRGLDITLVHDIVNMLIHGLQFVIKV
modifications: V5/6His tag in recombinant form
notes: rSPLUNC1 is the purified V5/6His-tagged recombinant form
Q: Which Kd does the source give for B1 here?
A: 0.055 µg/mL
